Results as given in paper PMC9129911, “Electron Flow From the Inner Membrane Towards the Cell Exterior in Geobacter sulfurreducens: Biochemical Characterization of Cytochrome CbcL” (Frontiers in Microbiology, 2022).

Target: T1, triheme cytochrome PpcA from Geobacter sulfurreducens (Geobacter sulfurreducens, three heme groups)
T1 chain: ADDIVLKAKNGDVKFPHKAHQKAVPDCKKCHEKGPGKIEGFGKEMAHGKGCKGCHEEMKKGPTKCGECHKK
Assay: NMR titration; 1D 1H NMR chemical shift perturbation; CbcL (800 uM stock) added to 50 uM PpcA, both oxidized, 10 mM sodium phosphate pH 8, in 2H2O, 25°C; shift of PpcA heme methyl 18^1CH3^I fitted to a one binding site model under fast exchange
Details: both partners purified

B1: CbcL periplasmic domain (c- and b-type cytochrome for low potential) from Geobacter sulfurreducens (domain or fragment)
chain: IDPATCLGCHSNKISAAAFSASVHGKNACTSCHVEITDLTKHMKGEVKVEKVRCERCHKKENAEHYSSVHAQKDVRCADCHTDIHTHSYWNKDKRKVVAKCIQCHDKEAGYRNSIHGKGVAAGNMDSAACNDCHNLHDIKPLGDPKSKENREFHTKVCLKCHADEKMMERNNVFTVAVKTYMDSYHGKNYRLGFPEKVAGCADCHTAHGVLPAKDPNSSVNPQNLVATCAKCHPKATPLFTKFYSHGELG
modifications: nine c-type heme groups
  Kd: 57 ± 9 µM
